From IntAct's records for PubMed 31515488

B1: Protein LRATD2 (Homo sapiens), Q96KN1 (parent)
chain: MGNQVEKLTHLSYKEVPTADPTGVDRDDGPRIGVSYIFSNDDEDVEPQPPPQGPDGGGLPDGGDGPPPPQPQPYDPRLHEVECSVFYRDECIYQKSFAPGSAALSTYTPENLLNKCKPGDLVEFVSQAQYPHWAVYVGNFQVVHLHRLEVINSFLTDASQGRRGRVVNDLYRYKPLSSSAVVRNALAHVGAKERELSWRNSESFAAWCRYGKREFKIGGELRIGKQPYRLQIQLSAQRSHTLEFQSLEDLIMEKRRNDQIGRAAVLQELATHLHPAEPEEGDSNVARTTPPPGRPPAPSSEEEDGEAVAH
partner: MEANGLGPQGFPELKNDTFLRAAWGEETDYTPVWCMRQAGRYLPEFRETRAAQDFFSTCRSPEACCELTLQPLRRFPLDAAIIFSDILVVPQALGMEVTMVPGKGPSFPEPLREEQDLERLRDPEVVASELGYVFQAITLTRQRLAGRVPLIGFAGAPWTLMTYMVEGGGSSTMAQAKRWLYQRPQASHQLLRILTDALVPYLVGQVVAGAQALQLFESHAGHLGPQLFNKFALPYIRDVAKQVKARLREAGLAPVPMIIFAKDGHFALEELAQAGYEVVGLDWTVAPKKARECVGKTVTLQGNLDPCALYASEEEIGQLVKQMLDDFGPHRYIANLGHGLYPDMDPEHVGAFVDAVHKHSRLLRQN
B2: Hematopoietic prostaglandin D synthase (Homo sapiens), O60760 (parent)
chain: MPNYKLTYFNMRGRAEIIRYIFAYLDIQYEDHRIEQADWPEIKSTLPFGKIPILEVDGLTLHQSLAIARYLTKNTDLAGNTEMEQCHVDAIVDTLDDFMSCFPWAEKKQDVKEQMFNELLTYNAPHLMQDLDTYLGGREWLIGNSVTWADFYWEICSTTLLVFKPDLLDNHPRLVTLRKKVQAIPAVANWIKRRPQTKL
partner: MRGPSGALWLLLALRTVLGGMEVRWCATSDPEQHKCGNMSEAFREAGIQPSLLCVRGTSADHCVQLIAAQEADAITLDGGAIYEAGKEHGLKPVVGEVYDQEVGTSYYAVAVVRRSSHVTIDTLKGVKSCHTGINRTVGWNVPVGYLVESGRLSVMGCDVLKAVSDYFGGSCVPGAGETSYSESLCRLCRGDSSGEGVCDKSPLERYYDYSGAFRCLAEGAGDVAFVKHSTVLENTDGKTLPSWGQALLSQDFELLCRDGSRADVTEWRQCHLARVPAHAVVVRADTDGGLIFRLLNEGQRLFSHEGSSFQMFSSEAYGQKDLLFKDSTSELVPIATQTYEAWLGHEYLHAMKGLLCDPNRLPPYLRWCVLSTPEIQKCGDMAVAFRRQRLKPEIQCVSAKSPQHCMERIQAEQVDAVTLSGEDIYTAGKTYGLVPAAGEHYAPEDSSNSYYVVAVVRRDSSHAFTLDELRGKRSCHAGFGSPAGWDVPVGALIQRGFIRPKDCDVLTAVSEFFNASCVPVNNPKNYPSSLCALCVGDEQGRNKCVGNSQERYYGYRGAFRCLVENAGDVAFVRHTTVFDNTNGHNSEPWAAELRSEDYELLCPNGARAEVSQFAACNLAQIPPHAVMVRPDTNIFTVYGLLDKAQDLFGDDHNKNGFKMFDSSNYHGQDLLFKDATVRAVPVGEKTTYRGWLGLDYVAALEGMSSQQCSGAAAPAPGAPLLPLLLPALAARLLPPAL
B3: RUN and FYVE domain-containing protein 1 (Homo sapiens), Q96T51-2 (parent)
chain: MMEERANLMHMMKLSIKVLLQSALSLGRSLDADHAPLQQFFVVMEHCLKHGLKVKKSFIGQNKSFFGPLELVEKLCPEASDIATSVRNLPELKTAVGRGRAWLYLALMQKKLADYLKVLIDNKHLLSEFYEPEALMMEEEGMVIVGLLVGLNVLDANLCLKGEDLDSQVGVIDFSLYLKDVQDLDGGKEHERITDVLDQKNYVEELNRHLSCTVGDLQTKIDGLEKTNSKLQEELSAATDRICSLQEEQQQLREQNELIRERSEKSVEITKQDTKVELETYKQTRQGLDEMYSDVWKQLKEEKKVRLELEKELELQIGMKTEMEIAMKLLEKDTHEKQDTLVALRQQLEEVKAINLQMFHKAQNAESSLQQKNEAITSFEGKTNQVMSSMKQMEERLQHSERARQGAEERSHKLQQELGGRIGALQLQLSQLHEQCSSLEKELKSEKEQRQALQRELQHEKDTSSLLRMELQQVEGLKKELRELQDEKAELQKICEEQEQALQEMGLHLSQSKLKMEDIKEVNQALKGHAWLKDDEATHCRQCEKEFSISRRKHHCRNCGHIFCNTCSSNELALPSYPKPVRVCDSCHTLLLQRCSSTAS
partner: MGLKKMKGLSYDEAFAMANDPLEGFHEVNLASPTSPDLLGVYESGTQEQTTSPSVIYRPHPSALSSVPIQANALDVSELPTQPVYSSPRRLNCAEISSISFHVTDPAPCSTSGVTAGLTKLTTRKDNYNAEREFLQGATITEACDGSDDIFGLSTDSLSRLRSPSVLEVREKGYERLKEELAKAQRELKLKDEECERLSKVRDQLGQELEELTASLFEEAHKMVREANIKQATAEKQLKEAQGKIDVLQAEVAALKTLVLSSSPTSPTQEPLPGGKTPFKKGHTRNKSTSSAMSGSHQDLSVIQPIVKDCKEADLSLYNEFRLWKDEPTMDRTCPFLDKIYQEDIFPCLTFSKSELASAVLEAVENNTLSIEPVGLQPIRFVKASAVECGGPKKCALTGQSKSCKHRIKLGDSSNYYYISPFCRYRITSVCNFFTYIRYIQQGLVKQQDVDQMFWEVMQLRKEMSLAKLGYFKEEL
B4: Fibronectin type III and SPRY domain-containing protein 2 (Homo sapiens), A1L4K1 (parent)
chain: MEEESGEELGLDRSTPKDFHFYHMDLYDSEDRLHLFPEENTRMRKVVQAEMANESRGAGDGKAQRDLQEEVDELVHLYGLEDDHELGDEFVDENIPRTGVSEYPPYMMKRRDPAREQRDWRLSGEAAEAEDLGFGGWGSAGQCQDLREAYRYTHGRASEEYECYVIPEEEDEEEAADVFCVTCKTPIRAFQKVFDEHKEHEVIPLNEALESAKDEIHKNMYKLEKQIIEMENFANHLEEVFITVEENFGKQEQNFESHYNEILETLAQKYEEKIQALGEKKKEKLEALYGQLVSCGENLDTCKELMETIEEMCHEEKVDFIKDAVAMADRLGKFLKTKTDVEISAQPEFEDQTLDFSDVEQLMGSINTIPAPSAPVINPQVPNSATGSSVRVCWSLYSDDTVESYQLSYRPVQDSSPGTDQAEFTVTVKETYCSVTNLVPNTQYEFWVTAHNRAGPSPSSERAVYMTAPSPPIIKTKEIRSCEEAVLICWESGNLNPVDSYTVELTQAESPEASGVTESVVGIPTCESVVQLQPGRSYIIYVRALNMGGPSVRSEPATVHTIGSYFRLNKDTCHPWLTISEDGLTAVRSERRTPARELSPSDTHFTRCVAVMGNLIPVRGHHYWEVEVDEHLDYRVGVAFADVRKQEDLGANCLSWCMRHTFASSRHKYEFLHNRTTPDIRITVPPKKIGILLDYEHSKLSFFNVDLSQHLYTFSCQLHEFVHPCFSLEKPGCLKVHNGISMPKHVTFY
partner: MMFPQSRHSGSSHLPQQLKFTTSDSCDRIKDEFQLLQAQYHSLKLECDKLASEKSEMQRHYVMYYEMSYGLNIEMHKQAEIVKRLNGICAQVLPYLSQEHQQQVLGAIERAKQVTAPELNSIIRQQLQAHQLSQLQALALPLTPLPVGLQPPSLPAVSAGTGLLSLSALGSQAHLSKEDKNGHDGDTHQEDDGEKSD
B5: Cyclin-dependent kinase 4 inhibitor C (Homo sapiens), P42773 (parent)
chain: MAEPWGNELASAAARGDLEQLTSLLQNNVNVNAQNGFGRTALQVMKLGNPEIARRLLLRGANPDLKDRTGFAVIHDAARAGFLDTLQTLLEFQADVNIEDNEGNLPLHLAAKEGHLRVVEFLVKHTASNVGHRNHKGDTACDLARLYGRNEVVSLMQANGAGGATNLQ
partner: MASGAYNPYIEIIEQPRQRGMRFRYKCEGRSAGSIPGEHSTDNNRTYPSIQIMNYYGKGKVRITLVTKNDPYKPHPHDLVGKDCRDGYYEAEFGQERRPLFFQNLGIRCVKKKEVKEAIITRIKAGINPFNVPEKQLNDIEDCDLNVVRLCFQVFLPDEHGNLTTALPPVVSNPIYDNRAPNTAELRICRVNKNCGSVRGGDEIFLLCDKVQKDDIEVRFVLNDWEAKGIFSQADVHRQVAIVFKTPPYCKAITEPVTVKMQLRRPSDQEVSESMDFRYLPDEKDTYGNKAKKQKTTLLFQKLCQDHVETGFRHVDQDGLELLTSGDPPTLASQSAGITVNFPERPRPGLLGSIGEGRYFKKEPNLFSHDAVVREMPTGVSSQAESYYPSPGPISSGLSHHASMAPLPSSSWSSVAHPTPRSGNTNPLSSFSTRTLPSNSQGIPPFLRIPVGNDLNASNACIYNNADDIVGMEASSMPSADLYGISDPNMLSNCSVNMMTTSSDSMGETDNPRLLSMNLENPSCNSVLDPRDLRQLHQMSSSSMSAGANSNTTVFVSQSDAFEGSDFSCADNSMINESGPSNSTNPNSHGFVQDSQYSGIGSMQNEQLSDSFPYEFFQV

Variants of: B1
Settings: with dcup_human UROD

Row | Variant | effect of a mutation on the interaction
1 | P71T | with no effect

Variants of: B2
Settings: with trfm_human MELTF

Row | Variant | effect of a mutation on the interaction
2 | M128T | disrupting interaction strength

Variants of: B3
Settings: with rab3i_human RAB3IP

Row | Variant | effect of a mutation on the interaction
3 | C159F | with no effect

Variants of: B4
Settings: with tle5_human TLE5, Q08117

Row | Variant | effect of a mutation on the interaction
4 | E720K | with no effect
5 | K333T | with no effect

Variants of: B5
Settings: with rel_human REL

Row | Variant | effect of a mutation on the interaction
6 | V31L | disrupting interaction strength
